In one test the target is T1, human MAGEA4 (human, UniProt P43358 1-317).
T1 construct: whole, on cells; Transfected into CHO cells with Myc/DDK tags
T1 sequence (looked up): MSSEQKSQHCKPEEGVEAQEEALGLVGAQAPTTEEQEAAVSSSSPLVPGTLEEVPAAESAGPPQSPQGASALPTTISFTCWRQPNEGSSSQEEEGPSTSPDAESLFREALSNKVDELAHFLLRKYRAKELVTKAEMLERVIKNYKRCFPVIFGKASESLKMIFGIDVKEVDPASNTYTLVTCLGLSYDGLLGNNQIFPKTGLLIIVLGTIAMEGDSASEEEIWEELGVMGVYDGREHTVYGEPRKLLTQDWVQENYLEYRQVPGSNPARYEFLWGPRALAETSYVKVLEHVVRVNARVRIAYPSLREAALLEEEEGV
Briefly: IHC, FFPE CHO cells transfected with human MAGEA4. The text has this:
(§1) Negative control cells included parental Chinese hamster ovary (CHO) cells, CHO cells stably transfected with mCherry Vector Control (minus Myc/DDK tags), CHO cells stably transfected with mCherry-human DCAF4L2 (plus Myc/DDK tags). The cross-reactivity control cells included CHO cells transfected with mCherry Vector Control (plus Myc/DDK tags) with one of the human MAGE-B or MAGE-A family members (MAGEA1, MAGEA2, MAGEA3, MAGEA4, MAGEA5, MAGEA6, MAGEA8, MAGEA9, MAGEA11, MAGEA12, MAGEB1, MAGEB3, MAGEB4, MAGEB5, MAGEB6, MAGEB10, MAGEB16, MAGEB17, MAGEB18). Positive control cell lines included CHO cells transfected with mCherry Vector (plus Myc/DDK tags) with human MAGE-B2 or CHO cells transfected with mCherry Vector (open reading frame (ORF); minus Myc/DDK tags) with human MAGEB2, and thirteen human cancer cell lines with known endogenous RNA expression level of MAGEB2 (U266B1, T98G, KMM-1, U20S, CFPAC-1, SCaBER, UACC-257, CFPAC-1, VMRC-LCD, NCI-H1703, UM-UC-3, NCI-H1395, NCIH82).
(§2) FFPE samples were sectioned at 4 μm and mounted on positive charged glass slides. After mounting, paraffin sections were air-dried at room temperature. FFPE TMA samples were received as freshly sectioned and mounted on glass slides. The fully automated IHC assay was performed on a Discovery Ultra Stainer (Ventana Medical Systems, Tucson, AZ) using Ventana Anti-Rabbit HQ (cat #760-4815), Ventana Anti-HQ HRP (cat #760-4820), and Ventana Antibody Diluent with Casein (cat #760-219) (Ventana Medical Systems, Tucson, AZ). The slides were baked on the Discovery Ultra Stainer at 60° C. for 8 minutes, de-paraffinized with Ventana Discovery wash (cat #950-510) for 3 cycles (8 minutes each) at 69° C., and underwent cell conditioning (target retrieval) at 95° C. for 16 minutes (for cell arrays) or 32 minutes (tissues or TMAs) in CC1 buffer (cat #950-500). Following this, slides were incubated with Background Sniper (cat #BS966M, Biocare Medical, Pacheco, CA) in a Ventana Option Prep kit (cat #771-751) for 28 minutes, incubated with CM inhibitor (a part of the Ventana DAB kit cat #760-159) for 12 minutes, and incubated for 1 h at RT with MAGE-B2 antibody diluted with Ventana diluent with Casein in a Ventana Prep kit (cat #770-001) (working concentration at 0.1 μg/ml for cell pellet, or 1-5 ug/ml for tissues) or with a matched concentration of isotype control Rabbit IgG1 antibody.

The target in the next test is T2, human MAGEB3 (human, UniProt O15480 1-346).
T2 construct: whole, on cells; Transfected into CHO cells with Myc/DDK tags
T2 sequence (looked up): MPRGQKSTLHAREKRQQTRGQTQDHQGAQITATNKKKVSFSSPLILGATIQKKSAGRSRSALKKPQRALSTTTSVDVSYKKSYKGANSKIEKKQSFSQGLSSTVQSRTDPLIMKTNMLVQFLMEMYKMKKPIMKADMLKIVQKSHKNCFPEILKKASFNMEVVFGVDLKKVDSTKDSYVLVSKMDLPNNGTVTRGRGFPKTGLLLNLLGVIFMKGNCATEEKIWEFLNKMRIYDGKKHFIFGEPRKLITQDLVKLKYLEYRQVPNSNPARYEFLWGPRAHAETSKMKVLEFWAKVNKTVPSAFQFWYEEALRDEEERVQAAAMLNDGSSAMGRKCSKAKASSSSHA
Briefly: IHC, FFPE CHO cells transfected with human MAGEB3.
Text: as §1, §2

Numbering of substitutions follows the chain as printed.

B1: 1C3 (antibody, V domains shown)
VH: QSLEESGGGLVQPEGSLTLTCTAFGVTLTNYYICWVRQAPGKGLEWVGCIDNANGRTYYASWAKGRFTISKTSSTTGTLQMTSLTAADTATYFCARSLATPLWGPGTLVTVSS
VL: DIVMTQTPSSVEAAVGGTVTIKCQASQNISSYLAWYQQKPGQPPKLLIYRASTLASGVPSRFKGSGSGTQFTLTISDLECADAATYYCQSYDDSRSSNFFYAFGGGTEVVVKG
notes: also called MAGE-B2 (IC3); anti-MAGEB2 antibody 1C3
Turning to B1, the binding result in the test with human MAGEA4 and with human MAGEB3 was “no binding (tested: 0.1 µg/ml)” throughout.

B2: 4G17 (antibody, IgG1, V domains shown)
VH: B1 VH with F24S, T29S, V47I, A53V
VL: DIVMTQTPASVEAAVGGTVTIKCQASQNIDSYLAWYQQKPGQPPKLLIYRASTLASGVPSRFKGSGSGTEFTLTISDLECADAATYYCQSYDDSRSSSFFYGFGGGTEVVVK
notes: Rabbit monoclonal IgG1; Tested as supernatant and as small batch purified antibody; also called MAGE-B2 (4G17); anti-MAGEB2 antibody 4G17
In the case of B2, the binding result with human MAGEA4 and in the test with human MAGEB3 was “no binding (tested: 0.1 µg/ml)” each time.

B3: 1J15 (antibody, IgG1, V domains shown)
VH: B1 VH with V26F, T29N, V47I, G48A, G77V, A99S
VL: B2 VL with N28S, D30S, A34S, K63R, E70Q, R95S, S96D, S97N, S98N, K112R
notes: Rabbit monoclonal IgG1; Tested as supernatant and as small batch purified antibody; also called MAGE-B2 (IJ15); anti-MAGEB2 antibody 1J15
Take B3: the binding result with human MAGEA4 and with human MAGEB3 was “no binding (tested: 0.1 µg/ml)” throughout.

B4: 1I14 (antibody, V domains shown)
VH: QSVEESGGRLVTPGTPLTLTCTISGFSLSSYAMSWVRQAPGKGLEWIGSIGGGGSAVYASWAKGRFTISKTSTTVDLRITSPTTEDTAMYFCGRGFYSIDLWGPGTLVTVSS
VL: DVVMTQTPASVEATVGGTVTIKCQSSQSVYDNNALAWYQQNAGQRPRLLIYGASTLASGVPSRFSASGSGTEFTLTISDLECADAATYYCQCTYYVSSYQNDFGGGTEVVVKG
notes: also called MAGE-B2 (1i14)
Take B4: the binding result with human MAGEA4 and with human MAGEB3 was “no binding (tested: 0.1 µg/ml)” in each case.
